Legend:
[1] = biological target: T1, human neonatal Fc receptor FcRn/β2m, soluble recombinant (human, UniProt P55899 24-297; P61769 21-119, alexa-488 label (Examples 2-4); minimal chemical biotinylation with Sulfo-NHS-LC-LC-Biotin (Examples 5-6)); experiment: flow cytometry, labelled FcRn on CHO-displayed HSA, pH 5.4
T1 construct: Heterodimer; extracellular domain is inferred; also called hFcRn/β2M; hsFcRn
Excerpt: (§1) Background fluorescence due to non-specific binding of the labelled FcRn to the cells was subtracted from the value obtained.

[2] = biological target: T1, human neonatal Fc receptor FcRn/β2m, …; experiment: flow cytometry, labelled FcRn on CHO-displayed HSA, pH 7.3
Excerpt: as §1

[3] = biological target: T2, HSA [A552V/G572R], soluble (human, UniProt P02768 25-609); experiment: SPR, FcRn over immobilised HSA, pH 6.0, 1:1 model; pH 6.0
T2 construct: also called A522V/G572R
Description: (§2) Spot 3 of each flow cell was activated/deactivated and used for reference subtraction. The flow rate of FcRn/β2m was kept constant at 30 μL/min
(§3) A concentration range of 2 to 0.007 μM (pH6.0) and 20 to 0.078 μM (pH7.3) was used and association and dissociation phases were monitored for 180 and 600 seconds respectively.
(§4) Regeneration of the surface was performed as previously described.

[4] = biological target: T3, HSA [Q522L/G572R], soluble (human, UniProt P02768 25-609); experiment: as above
Description: as §2, §3, §4

[5] = biological target: T4, HSA [K573Y], soluble (human, UniProt P02768 25-609); experiment: as above
Description: as §2, §3, §4

[6] = biological target: HSA [G572R], soluble (human, UniProt P02768 25-609); experiment: SPR, FcRn over immobilised HSA, pH 6.0
[7] = biological target: HSA [Q522L/A552V], soluble (human, UniProt P02768 25-609); experiment: SPR, FcRn over immobilised HSA, pH 6.0
[8] = biological target: T5, HSA WT, soluble (human, UniProt P02768 25-609); experiment: SPR, FcRn over immobilised HSA, pH 6.0
T5 construct: also called wild-type HSA; recombinant wild-type HSA

[9] = biological target: T2, HSA [A552V/G572R], soluble; experiment: SPR, FcRn over immobilised HSA, pH 6.0
[10] = biological target: T3, HSA [Q522L/G572R], soluble; experiment: SPR, FcRn over immobilised HSA, pH 6.0
[11] = biological target: T4, HSA [K573Y], soluble; experiment: SPR, FcRn over immobilised HSA, pH 6.0

fold change to WT [1]	geoMFI [1]	fold change to WT [2]	geoMFI [2]	Kd [3]	Kd [4]	Kd [5]	binding result [6]	binding result [7]	binding result [8]	binding result [9]	binding result [10]	binding result [11]	Binder
20.8 fold	34800	1.8 fold	28.8	–	–	–	–	–	–	–	–	–	HSA [K317E/M329V/K372E/F377I/I388T/A552V/G572R] (clone 3.9), membrane-tethered on CHO cells (other, not shown: Myc tag and PDGFR transmembrane domain) DAHKSEVAHRFKDLGEENFKALVLIAFAQYLQQCPFEDHVKLVNEVTEFAKTCVADESAENCDKSLHTLFGDKLCTVATLRETYGEMADCCAKQEPERNECFLQHKDDNPNLPRLVRPEVDVMCTAFHDNEETFLKKYLYEIARRHPYFYAPELLFFAKRYKAAFTECCQAADKAACLLPKLDELRDEGKASSAKQRLKCASLQKFGERAFKAWAVARLSQRFPKAEFAEVSKLVTDLTKVHTECCHGDLLECADDRADLAKYICENQDSISSKLKECCEKPLLEKSHCIAEVENDEMPADLPSLAADFVESKDVCENYAEAKDVFLGVFLYEYARRHPDYSVVLLLRLAKTYETTLEKCCAAADPHECYAEVFDEIKPLVEEPQNLTKQNCELFEQLGEYKFQNALLVRYTKKVPQVSTPTLVEVSRNLGKVGSKCCKHPEAKRMPCAEDYLSVVLNQLCVLHEKTPVSDRVTKCCTESLVNRRPCFSALEVDETYVPKEFNAETFTFHADICTLSEKERQIKKQTALVELVKHKPKATKEQLKAVMDDFVAFVEKCCKADDKETCFAEERKKLVAASQAALGL
–	–	–	–	4.82 µM	4.75 µM	0.989 µM	no binding (tested: 2 µM)	no binding (tested: 2 µM)	no binding (tested: 2 µM)	–	–	–	rat FcRn/β2m, soluble recombinant (receptor, Extracellular domain inferred from 'soluble') AEPRLPLMYHLAAVSDLSTGLPSFWATGWLGAQQYLTYNNLRQEADPCGAWIWENQVSWYWEKETTDLKSKEQLFLEAIRTLENQINGTFTLQGLLGCELAPDNSSLPTAVFALNGEEFMRFNPRTGNWSGEWPETDIVGNLWMKQPEAARKESEFLLTSCPERLLGHLERGRQNLEWKEPPSMRLKARPGNSGSSVLTCAAFSFYPPELKFRFLRNGLASGSGNCSTGPNGDGSFHAWSLLEVKRGDEHHYQCQVEHEGLAQPLTVDLDSPARSS b2m: IQKTPQIQVYSRHPPENGKPNFLNCYVSQFHPPQIEIELLKNGKKIPNIEMSDLSFSKDWSFYILAHTEFTPTETDVYACRVKHVTLKEPKTVTWDRDM
–	–	–	–	–	–	–	no binding (tested: 2 µM)	no binding (tested: 2 µM)	–	no binding (tested: 2 µM)	no binding (tested: 2 µM)	no binding (tested: 2 µM)	mouse FcRn/β2m, soluble recombinant (receptor, Extracellular domain inferred from 'soluble'; also called murineFcRn; murine FcRn/β2m) SETRPPLMYHLTAVSNPSTGLPSFWATGWLGPQQYLTYNSLRQEADPCGAWMWENQVSWYWEKETTDLKSKEQLFLEALKTLEKILNGTYTLQGLLGCELASDNSSVPTAVFALNGEEFMKFNPRIGNWTGEWPETEIVANLWMKQPDAARKESEFLLNSCPERLLGHLERGRRNLEWKEPPSMRLKARPGNSGSSVLTCAAFSFYPPELKFRFLRNGLASGSGNCSTGPNGDGSFHAWSLLEVKRGDEHHYQCQVEHEGLAQPLTVDLDSSARSS b2m: IQKTPQIQVYSRHPPENGKPNILNCYVTQFHPPHIEIQMLKNGKKIPKVEMSDMSFSKDWSFYILAHTEFTPTETDTYACRVKHASMAEPKTVYWDRDM
